B1: TYRO3, Q06418 (peptide)
chain: QQGLLPHSSC
B2: TMEM178B, H3BS89 (peptide)
chain: KSRPENGTVC

target: FRMPD4, Q14CM0; experiment: holdup assay; parameters: key: below the threshold = too weak to quantify, mostly under pKd 3.1 to 4; conditions: plain residues with an end cap or a label only (N-terminal biotin on a linker: ado-ado)
Sequence (Q14CM0 67-160): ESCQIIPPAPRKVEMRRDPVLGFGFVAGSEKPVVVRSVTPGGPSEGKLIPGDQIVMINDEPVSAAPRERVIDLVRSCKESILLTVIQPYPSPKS

Row | Binder | pKd
1 | B1 | below the threshold
2 | B2 | 3.49

target: Inadl_4, Q8NI35; experiment: holdup assay; parameters: key: below the threshold = too weak to quantify, mostly under pKd 3.1 to 4; conditions: plain residues with an end cap or a label only (N-terminal biotin on a linker: ado-ado)
Sequence (Q8NI35 547-651): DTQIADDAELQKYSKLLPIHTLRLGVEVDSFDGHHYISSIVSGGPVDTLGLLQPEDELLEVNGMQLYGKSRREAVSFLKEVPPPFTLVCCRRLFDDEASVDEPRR

Row | Binder | pKd
3 | B1 | below the threshold
4 | B2 | below the threshold

target: Inadl_2, Q8NI35; experiment: holdup assay; parameters: key: below the threshold = too weak to quantify, mostly under pKd 3.1 to 4; conditions: plain residues with an end cap or a label only (N-terminal biotin on a linker: ado-ado)
Sequence (Q8NI35 238-335): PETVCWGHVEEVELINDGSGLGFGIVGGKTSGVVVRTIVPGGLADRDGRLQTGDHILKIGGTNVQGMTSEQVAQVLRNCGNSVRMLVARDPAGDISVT

Row | Binder | pKd
5 | B1 | below the threshold
6 | B2 | below the threshold

target: NHERF4_1, Q86UT5-2; experiment: holdup assay; parameters: key: below the threshold = too weak to quantify, mostly under pKd 3.1 to 4; conditions: plain residues with an end cap or a label only (N-terminal biotin on a linker: ado-ado)
Sequence (Q86UT5 other isoform, or with tags, fused parts or gaps): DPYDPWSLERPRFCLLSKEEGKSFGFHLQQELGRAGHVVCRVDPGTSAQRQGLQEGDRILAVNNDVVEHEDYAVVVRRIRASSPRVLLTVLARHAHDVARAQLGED

Row | Binder | pKd
7 | B1 | 3.66
8 | B2 | below the threshold

target: FRMPD2_3, Q68DX3; experiment: holdup assay; parameters: key: below the threshold = too weak to quantify, mostly under pKd 3.1 to 4; conditions: plain residues with an end cap or a label only (N-terminal biotin on a linker: ado-ado)
Sequence (Q68DX3 1073-1166): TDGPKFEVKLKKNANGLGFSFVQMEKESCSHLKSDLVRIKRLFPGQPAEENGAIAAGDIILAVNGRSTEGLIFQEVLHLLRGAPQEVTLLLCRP

Row | Binder | pKd
9 | B1 | below the threshold
10 | B2 | below the threshold

target: T1, LRRC7, Q96NW7; experiment: holdup assay; parameters: key: below the threshold = too weak to quantify, mostly under pKd 3.1 to 4; conditions: plain residues with an end cap or a label only (N-terminal biotin on a linker: ado-ado)
T1 sequence (Q96NW7 1440-1537, limits assumed, looked up): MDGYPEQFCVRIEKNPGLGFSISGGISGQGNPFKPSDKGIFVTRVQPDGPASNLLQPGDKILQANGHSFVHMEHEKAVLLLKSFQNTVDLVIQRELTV

Row | Binder | pKd
11 | B1 | below the threshold
12 | B2 | below the threshold

target: GRIP2_6, Q9C0E4; experiment: holdup assay; parameters: key: below the threshold = too weak to quantify, mostly under pKd 3.1 to 4; conditions: plain residues with an end cap or a label only (N-terminal biotin on a linker: ado-ado)
Sequence (Q9C0E4 648-740): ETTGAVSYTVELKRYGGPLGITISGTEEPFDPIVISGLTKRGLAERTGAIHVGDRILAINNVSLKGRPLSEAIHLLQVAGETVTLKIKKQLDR

Row | Binder | pKd
13 | B1 | below the threshold
14 | B2 | below the threshold

target: MAGI2_3, Q86UL8; experiment: holdup assay; parameters: key: below the threshold = too weak to quantify, mostly under pKd 3.1 to 4; conditions: plain residues with an end cap or a label only (N-terminal biotin on a linker: ado-ado)
Sequence (Q86UL8 600-682): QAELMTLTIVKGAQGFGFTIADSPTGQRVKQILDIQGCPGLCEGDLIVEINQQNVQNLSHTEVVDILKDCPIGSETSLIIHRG

Row | Binder | pKd
15 | B1 | below the threshold
16 | B2 | below the threshold

target: T2, GRIP1_2, Q9Y3R0; experiment: holdup assay; parameters: key: below the threshold = too weak to quantify, mostly under pKd 3.1 to 4; conditions: plain residues with an end cap or a label only (N-terminal biotin on a linker: ado-ado)
T2 sequence (Q9Y3R0 145-248, limits assumed, looked up): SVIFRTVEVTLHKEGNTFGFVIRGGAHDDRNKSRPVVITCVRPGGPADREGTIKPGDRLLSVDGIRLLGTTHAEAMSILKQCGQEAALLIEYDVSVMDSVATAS

Row | Binder | pKd
17 | B1 | below the threshold
18 | B2 | below the threshold

target: T3, MPDZ_10, O75970; experiment: holdup assay; parameters: key: below the threshold = too weak to quantify, mostly under pKd 3.1 to 4; conditions: plain residues with an end cap or a label only (N-terminal biotin on a linker: ado-ado)
T3 sequence (O75970 1624-1722, limits assumed, looked up): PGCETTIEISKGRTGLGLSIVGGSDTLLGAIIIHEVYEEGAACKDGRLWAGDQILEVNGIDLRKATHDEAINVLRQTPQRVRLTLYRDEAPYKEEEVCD

Row | Binder | pKd
19 | B1 | 3.72
20 | B2 | below the threshold

target: DLG4_3, P78352; experiment: holdup assay; parameters: key: below the threshold = too weak to quantify, mostly under pKd 3.1 to 4; conditions: plain residues with an end cap or a label only (N-terminal biotin on a linker: ado-ado)
Sequence (P78352 306-403): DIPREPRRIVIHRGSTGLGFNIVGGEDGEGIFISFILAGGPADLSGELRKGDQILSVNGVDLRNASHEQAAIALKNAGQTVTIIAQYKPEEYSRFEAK

Row | Binder | pKd
21 | B1 | below the threshold
22 | B2 | 3.5

target: PDZRN4_1, Q6ZMN7; experiment: holdup assay; parameters: key: below the threshold = too weak to quantify, mostly under pKd 3.1 to 4; conditions: plain residues with an end cap or a label only (N-terminal biotin on a linker: ado-ado)
Sequence (Q6ZMN7 213-318): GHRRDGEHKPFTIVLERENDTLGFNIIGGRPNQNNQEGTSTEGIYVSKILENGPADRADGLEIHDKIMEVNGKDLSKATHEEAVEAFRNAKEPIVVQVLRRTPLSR

Row | Binder | pKd
23 | B1 | below the threshold
24 | B2 | below the threshold

target: MAGI3_2, Q5TCQ9; experiment: holdup assay; parameters: key: below the threshold = too weak to quantify, mostly under pKd 3.1 to 4; conditions: plain residues with an end cap or a label only (N-terminal biotin on a linker: ado-ado)
Sequence (Q5TCQ9 398-503): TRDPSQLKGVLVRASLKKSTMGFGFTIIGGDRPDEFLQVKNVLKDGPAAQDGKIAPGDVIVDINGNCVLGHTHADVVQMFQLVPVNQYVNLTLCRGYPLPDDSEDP

Row | Binder | pKd
25 | B1 | below the threshold
26 | B2 | below the threshold

target: LDB3, O75112; experiment: holdup assay; parameters: key: below the threshold = too weak to quantify, mostly under pKd 3.1 to 4; conditions: plain residues with an end cap or a label only (N-terminal biotin on a linker: ado-ado)
Sequence (O75112 1-94): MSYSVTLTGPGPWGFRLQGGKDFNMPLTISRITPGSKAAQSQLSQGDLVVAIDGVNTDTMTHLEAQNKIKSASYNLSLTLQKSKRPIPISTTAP

Row | Binder | pKd
27 | B1 | below the threshold
28 | B2 | below the threshold

target: MAST1, Q9Y2H9; experiment: holdup assay; parameters: key: below the threshold = too weak to quantify, mostly under pKd 3.1 to 4; conditions: plain residues with an end cap or a label only (N-terminal biotin on a linker: ado-ado)
Sequence (Q9Y2H9 962-1065): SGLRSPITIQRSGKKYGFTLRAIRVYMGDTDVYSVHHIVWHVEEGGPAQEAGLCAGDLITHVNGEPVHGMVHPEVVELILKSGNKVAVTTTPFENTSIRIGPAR

Row | Binder | pKd
29 | B1 | below the threshold
30 | B2 | below the threshold

target: GIPC2, Q8TF65; experiment: holdup assay; parameters: key: below the threshold = too weak to quantify, mostly under pKd 3.1 to 4; conditions: plain residues with an end cap or a label only (N-terminal biotin on a linker: ado-ado)
Sequence (Q8TF65 112-203): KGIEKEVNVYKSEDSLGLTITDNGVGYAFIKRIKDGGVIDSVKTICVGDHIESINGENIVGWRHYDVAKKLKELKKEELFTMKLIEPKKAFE

Row | Binder | pKd
31 | B1 | 3.53
32 | B2 | below the threshold

target: T4, RAPGEF6, Q8TEU7; experiment: holdup assay; parameters: key: below the threshold = too weak to quantify, mostly under pKd 3.1 to 4; conditions: plain residues with an end cap or a label only (N-terminal biotin on a linker: ado-ado)
T4 sequence (Q8TEU7 525-625, limits assumed, looked up): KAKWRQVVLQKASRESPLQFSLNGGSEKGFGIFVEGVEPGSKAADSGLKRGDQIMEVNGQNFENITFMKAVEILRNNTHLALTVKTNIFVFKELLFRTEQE

Row | Binder | pKd
33 | B1 | below the threshold
34 | B2 | below the threshold

target: T5, GRIP1_7, Q9Y3R0; experiment: holdup assay; parameters: key: below the threshold = too weak to quantify, mostly under pKd 3.1 to 4; conditions: plain residues with an end cap or a label only (N-terminal biotin on a linker: ado-ado)
T5 sequence (Q9Y3R0 999-1096, limits assumed, looked up): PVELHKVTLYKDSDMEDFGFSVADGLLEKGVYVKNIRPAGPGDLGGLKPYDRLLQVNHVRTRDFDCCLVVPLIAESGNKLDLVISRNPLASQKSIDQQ

Row | Binder | pKd
35 | B1 | below the threshold
36 | B2 | below the threshold

target: T6, RADIL, Q96JH8; experiment: holdup assay; parameters: key: below the threshold = too weak to quantify, mostly under pKd 3.1 to 4; conditions: plain residues with an end cap or a label only (N-terminal biotin on a linker: ado-ado)
T6 sequence (Q96JH8 971-1071, limits assumed, looked up): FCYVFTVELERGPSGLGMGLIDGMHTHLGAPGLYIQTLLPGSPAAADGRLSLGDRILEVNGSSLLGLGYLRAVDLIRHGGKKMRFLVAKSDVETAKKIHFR

Row | Binder | pKd
37 | B1 | below the threshold
38 | B2 | below the threshold

target: PTPN3, P26045; experiment: holdup assay; parameters: key: below the threshold = too weak to quantify, mostly under pKd 3.1 to 4; conditions: plain residues with an end cap or a label only (N-terminal biotin on a linker: ado-ado)
Sequence (P26045 505-587): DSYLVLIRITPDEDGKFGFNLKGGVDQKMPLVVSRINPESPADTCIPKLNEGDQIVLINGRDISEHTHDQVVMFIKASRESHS

Row | Binder | pKd
39 | B1 | below the threshold
40 | B2 | 3.77

target: T7, DFNB31_2, Q9P202; experiment: holdup assay; parameters: key: below the threshold = too weak to quantify, mostly under pKd 3.1 to 4; conditions: plain residues with an end cap or a label only (N-terminal biotin on a linker: ado-ado)
T7 sequence (Q9P202 274-371, limits assumed, looked up): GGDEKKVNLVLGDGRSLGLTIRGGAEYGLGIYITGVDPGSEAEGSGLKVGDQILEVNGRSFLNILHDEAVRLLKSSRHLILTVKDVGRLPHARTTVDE

Row | Binder | pKd
41 | B1 | below the threshold
42 | B2 | below the threshold

target: IL16_1, Q14005; experiment: holdup assay; parameters: key: below the threshold = too weak to quantify, mostly under pKd 3.1 to 4; conditions: plain residues with an end cap or a label only (N-terminal biotin on a linker: ado-ado)
Sequence (Q14005 210-306): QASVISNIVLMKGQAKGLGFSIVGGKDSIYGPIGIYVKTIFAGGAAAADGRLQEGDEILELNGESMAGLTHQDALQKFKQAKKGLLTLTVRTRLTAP

Row | Binder | pKd
43 | B1 | below the threshold
44 | B2 | below the threshold

target: MAGI2_5, Q86UL8; experiment: holdup assay; parameters: key: below the threshold = too weak to quantify, mostly under pKd 3.1 to 4; conditions: plain residues with an end cap or a label only (N-terminal biotin on a linker: ado-ado)
Sequence (Q86UL8 915-1017): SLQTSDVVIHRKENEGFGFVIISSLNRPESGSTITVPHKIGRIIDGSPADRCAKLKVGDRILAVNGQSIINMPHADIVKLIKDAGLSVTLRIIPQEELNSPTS

Row | Binder | pKd
45 | B1 | below the threshold
46 | B2 | below the threshold

target: T8, MPP7, Q5T2T1; experiment: holdup assay; parameters: key: below the threshold = too weak to quantify, mostly under pKd 3.1 to 4; conditions: plain residues with an end cap or a label only (N-terminal biotin on a linker: ado-ado)
T8 sequence (Q5T2T1 134-230, limits assumed, looked up): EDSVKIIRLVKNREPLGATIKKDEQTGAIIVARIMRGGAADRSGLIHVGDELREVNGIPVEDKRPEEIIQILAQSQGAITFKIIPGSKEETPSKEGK

Row | Binder | pKd
47 | B1 | below the threshold
48 | B2 | below the threshold

target: T9, MPP6, Q9NZW5; experiment: holdup assay; parameters: key: below the threshold = too weak to quantify, mostly under pKd 3.1 to 4; conditions: plain residues with an end cap or a label only (N-terminal biotin on a linker: ado-ado)
T9 sequence (Q9NZW5 125-219, limits assumed, looked up): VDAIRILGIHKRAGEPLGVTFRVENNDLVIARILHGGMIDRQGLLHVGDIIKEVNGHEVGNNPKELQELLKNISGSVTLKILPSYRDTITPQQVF

Row | Binder | pKd
49 | B1 | below the threshold
50 | B2 | below the threshold

target: T10, MPDZ_5, O75970; experiment: holdup assay; parameters: key: below the threshold = too weak to quantify, mostly under pKd 3.1 to 4; conditions: plain residues with an end cap or a label only (N-terminal biotin on a linker: ado-ado)
T10 sequence (O75970 695-796, limits assumed, looked up): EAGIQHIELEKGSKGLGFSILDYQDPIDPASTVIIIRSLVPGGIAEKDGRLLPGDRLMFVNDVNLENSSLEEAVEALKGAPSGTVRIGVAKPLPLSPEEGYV

Row | Binder | pKd
51 | B1 | below the threshold
52 | B2 | below the threshold

target: CASK, O14936; experiment: holdup assay; parameters: key: below the threshold = too weak to quantify, mostly under pKd 3.1 to 4; conditions: plain residues with an end cap or a label only (N-terminal biotin on a linker: ado-ado)
Sequence (O14936 487-570): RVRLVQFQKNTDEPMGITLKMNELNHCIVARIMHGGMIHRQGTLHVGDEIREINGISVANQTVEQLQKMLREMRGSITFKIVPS

Row | Binder | pKd
53 | B1 | below the threshold
54 | B2 | below the threshold

target: HTRA2, O43464; experiment: holdup assay; parameters: key: below the threshold = too weak to quantify, mostly under pKd 3.1 to 4; conditions: plain residues with an end cap or a label only (N-terminal biotin on a linker: ado-ado)
Sequence (O43464 355-458): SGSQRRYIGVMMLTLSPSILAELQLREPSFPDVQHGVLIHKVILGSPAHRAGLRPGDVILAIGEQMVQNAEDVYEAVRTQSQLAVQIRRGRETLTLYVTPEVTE

Row | Binder | pKd
55 | B1 | below the threshold
56 | B2 | below the threshold
